According to patent US20240058465A1 (SUTRO BIOPHARMA, published 2024):

What was measured:
human ROR1 (hROR1) = target: T1, human ROR1 (hROR1) (human, UniProt Q01973 30-937); experiment: flow cytometry, HCT116-hROR1 cells
T1 construct: On HCT116-hROR1 transfectants, Mino cells or Ntera-2 cells, as the assay of each row says; also called receptor tyrosine kinase like orphan receptor 1
Protocol: A mix of ROR1 positive and negative cells was prepared as follows. Ror1 negative cells were washed 2× in PBS then incubated in PBS containing 1 nM CellTrace™ Oregon Green488® (Life Technologies) at 37° C. for 30 minutes. Cells were then washed 2× with RPMI w/10% fetal calf serum (or FCS), washed 2× with FACS buffer (PBS+0.5% BSA), suspended thoroughly in ice-cold FACS buffer at a final concentration of 4×10^6 cells/ml and kept on ice. ROR1 positive cells were washed 2× in PBS and suspended with ice-cold FACS buffer at 4×10^6 cells/ml. ROR1 positive and negative cells were then mixed to obtain a 1-1 cell suspension and seeded at 50 μl per well on 96 well polypropylene plates. 50 μl of 6-12 point dilutions of anti-ROR1 variants starting from concentrations of ˜100-200 nM antibody was dispensed using BioMekFX (Beckman Coulter) into each well. Cells were then incubated on ice for 1 hr, washed with FACS buffer and incubated for 1 hr on ice with 50 μl FACS buffer containing 2.5 μg/ml Alexa647-conjugated Goat Anti-Human IgG dispensed using BioMekFX (Beckman Coulter). Cells were then washed 2× with FACS buffer and fixed for 10 minutes in 200 μl PBS with 2% PFA prior to fluorescence detection. Samples were acquired using a Beckton Dickinson LSRII FACS. Mean Fluorescence Intensity of ROR1 antibody binding was analyzed using FlowJo® software (Tree Star, Inc.).

[1] = target: T2, human ROR1 Frizzled domain (hROR1-Fz) (human, UniProt Q01973 165-305); experiment: SPR Biacore, IgG on anti-Fc, ROR1-Fz analyte
T2 construct: Acro Biosystems, made in HEK293
Protocol: Anti-Fc polyclonal antibodies were immobilized onto a CMS chip (GE Life Sciences) using amine coupling chemistry (from Amine Coupling Kit, GE Life Sciences). The immobilization steps were carried out at a flow rate of 25 μL/min in 1×HBS-EP+buffer (GE Life Sciences; 10× Stock diluted before use). The sensor surfaces were activated for 7 min with a mixture of NHS (0.05 M) and EDC (0.2 M). The Anti-Fc antibodies were injected over all 4 flow cells at a concentration of 25 ug/ml in 10 mM sodium acetate, pH 4.5, for 7 min. Ethanolamine (1 M, pH 8.5) was injected for 7 min to block any remaining activated groups.
Off-rate and kinetic binding experiments were performed at 25° C. using 1×HBS-EP+buffer. Test and control antibodies were injected over the anti-Fc surface at concentrations of 5-10 μg/mL for 12 seconds at a flow rate of 10 μL/min on flow cells 2, 3 and 4, followed by a buffer wash for 30 seconds at the same flow rate. […] After capturing ligand (antibody) on the anti-Fc surface, the analyte (hROR1, Fz or Kr domains, Acro Biosystems, Delaware) was bound for 180 seconds, followed by a 600 second dissociation phase at a flow rate of 50 μL/min. Between each ligand capture and analyte binding cycle, regeneration was carried out using 2 injections of 10 mM Glycine pH 2.0 for 30 seconds at 30 μL/min, followed by a 30 second buffer wash step.

| Bmax (MFI) (human ROR1 (hROR1)) | Kd (human ROR1 (hROR1)) [nM] | Kd [1] [nM] | koff [1] [s⁻¹] | kon [1] [M⁻¹ s⁻¹] | Binder |
| --- | --- | --- | --- | --- | --- |
| 15600 | 0.28 | 2.35 | 0.000511 | 218000 | SRP2193-B02 (antibody, IgG1, V domains shown, His/FLAG-tagged IgG1, cell-free; also called Antibody 77) VH: EVQLVESGGGLVQPGGSLRLSCAASGFNIKNSYIHWVRQAPGKGLEWVGTIDPTRGSTVHADSVKGRFTISADTSKNTAYLQMNSLRAEDTAVYYCARSRWFRVLWSYVFDYWGQGTLVTVSS VL: not shown |
| 15500 | 0.67 | 2.96 | 0.000505 | 170000 | SRP2193-B03 (antibody, IgG1, V domains shown, His/FLAG-tagged IgG1, cell-free; also called Antibody 82) VH: EVQLVESGGGLVQPGGSLRLSCAASGFNIRDYYIHWVRQAPGKGLEWVGAIDPVSGSTLFADSVKGRFTISADTSKNTAYLQMNSLRAEDTEVYYCARSRWFRVLWSYVFDYWGQGTLVTVSS VL: not shown |
| 17000 | 0.13 | 1.06 | 0.000242 | 228000 | SRP2193-E01 (antibody, IgG1, V domains shown, His/FLAG-tagged IgG1, cell-free; also called Antibody 120) VH: EVQLVESGGGLVQPGGSLRLSCAASGFNIKGKYIHWVRQAPGKGLEWVGAIDPKSGSTAHADSVKGRFTISADTSKNTAYLQMNSLRAEDTAAYYCARSRWFRVLWTYVFDYWGQGTLVTVSS VL: not shown |
| 15600 | 0.4 | 0.778 | 0.000134 | 172000 | SRP2193-B04 (antibody, IgG1, V domains shown, His/FLAG-tagged IgG1, cell-free) VH: EVQLVESGGGLVQPGGSLRLSCAASGFNISNSYIHWVRQAPGKGLEWVGAIEPKNGSTHHADSVKGRFTISADTSKNTAYLQMNSLRAEDTAVYYCARSRWFRVLWTYVFDYWGQGTLVTVSS VL: not shown |
| 15100 | 4.28 | 3.96 | 0.000651 | 164000 | SRP2193-E08 (antibody, IgG1, V domains shown, His/FLAG-tagged IgG1, cell-free; also called Antibody 87) VH: EVQLVESGGGLVQPGGSLRLSCAASGFNINEYYIHWVRQAPGKGLEWVGAIDPHSGSTNFADSVKGRFTISADTSKNTAYLQMNSLRAEDTAVYYCARSRWYRVLWSYVFDYWGQGTLVTVSS VL: not shown |
| 25400 | 1.33 | 1.28 | 0.000474 | 370000 | SRP2193-E11 (antibody, IgG1, V domains shown, His/FLAG-tagged IgG1, cell-free; also called Antibody 79) VH: EVQLVESGGGLVQPGGSLRLSCAASGFNINDYYIHWVRQAPGKGLEWVGGIEPNSGATVFADSVKGRFTIGADTSKNTAYLQMNSLRAEDTAVYYCARSRWYRVLWSYVFHYWGQGTLVTVSS VL: not shown |
| 14900 | 0.18 | 1.19 | 0.000207 | 173000 | SRP2193-C04 (antibody, IgG1, V domains shown, His/FLAG-tagged IgG1, cell-free; also called Antibody 86) VH: EVQLVESGGGLVQPGGSLRLSCAASGFNINTSYIHWVRQAPGKGLEWVGAIDPKSGSTNFADSVKGRFTISADASKNTAYLQMNSLRAEDTAVYYCARSRWFRVLWSYVLDYWGQGTLVTVSS VL: not shown |
| 14800 | 0.64 | 3.62 | 0.000379 | 105000 | SRP2193-D10 (antibody, IgG1, V domains shown, His/FLAG-tagged IgG1, cell-free; also called Antibody 92) VH: EVQLVESGGGLVQPGGSLRLSCAASGFNINVSYIHWVRQAPGKGLEWVATIDPNSGFTVHADSVKGRFTISADTSKNTAYLQMNSLRAEDTAVYYCARSRWFRVLWSYVFDYWGQGTLVTVSS VL: not shown |
| 14800 | 0.19 | 1.14 | 0.000294 | 259000 | SRP2193-E03 (antibody, IgG1, V domains shown, His/FLAG-tagged IgG1, cell-free; also called Antibody 98) VH: EVQLVESGGGLVQPGGSLRLSCAASGFNITASYIHWVRQAPGKGLEWVGAIDPKGGSTRFADSVKGRFTISADTSKNTAYLQMNSLRAEDTAVYYCARSRWFRVLWSYVFDYWGQGTLVTVSS VL: not shown |
| 9010 | 0.12 | 1.07 | 0.000325 | 304000 | SRP2194-A01 (antibody, IgG1, V domains shown, His/FLAG-tagged IgG1, cell-free) VH: EVQLVESGGGLVQPGGSLRLSCAASGFNITGYYIHWVRQAPGKGLEWVGYISPLAGNTYHADSVKGRFNISADTSKNTAYLQMNSLRAEDTAVYYCARDSRRYVRPMDYWGQGTLVTVSS VL: not shown |
| 8770 | 0.41 | 1.61 | 0.000275 | 171000 | SRP2194-A07 (antibody, IgG1, V domains shown, His/FLAG-tagged IgG1, cell-free) VH: EVQLVESGGGLVQPGGSLRLSCAASGFNFTDYYIHWVRQAPGKGLEWVGYISPLAGNTYHADSVKGRFTISADTSKNTAYLQMNSLRAEDTAVYYCARDSRRYVRPFDYWGQGTLVTVSS VL: not shown |
| 14800 | 0.2 |  |  |  | SRP2196-B05 (antibody, V domains shown, His/FLAG-tagged IgG1) VH: EVQLVESGGGLVQPGGSLRLSCAASGFNITGYYIHWVRQAPGKGLEWVGQISPNSGATYHADSVKGRFTISADTSKNTAYLQMNSLRAEDTAVYYCARDSRRYVRGWDYWGQGTLVTVSS VL: QAVVTQESALTTSPGETVTLTCRSSTGAVTTSNYANWVQEKPDHLFTGLIGGTNKRAPGVPARFSGSLIGDKAALTITGAQTEDEAIYFCALWYSNLWVFGGGTKLTVL |
| 9330 | 0.15 | 2.77 | 0.00071 | 256000 | SRP2194-B02 (antibody, IgG1, V domains shown, His/FLAG-tagged IgG1, cell-free) VH: EVQLVESGGGLVQPGGSLRLSCAASGFNISGYYIHWVRQTPGKGLEWVGYISPLAGNTYHADSVKGRFTISADTSKNTAYLQMNSLRAEDTAVYYCARDSRRYVRPLDYWGQGTLVTVSS VL: not shown |
| 9480 | 0.18 | 1.42 | 0.000295 | 207000 | SRP2194-B03 (antibody, IgG1, V domains shown, His/FLAG-tagged IgG1, cell-free) VH: EVQLVESGGGLVQPGGSLRLSCAASGFNITSYYIHWVRQAPGKGLEWVGYISPLAGNTYHADSVKGRFTISADTSKNTAYLQMNSLRAEDTAVYYCARDSRRYVRPFDYWGQGTLVTVSS VL: not shown |
| 8860 | 0.14 | 3.12 | 0.000857 | 274000 | SRP2194-B01 (antibody, IgG1, V domains shown, His/FLAG-tagged IgG1, cell-free; also called Antibody 140) VH: EVQLVESGGGLVQPGGSLRLSCAASGFNIASYYIHWVRQAPGKGLEWVGYISPLAGNTYHADSVKGRFTISADTSKNTAYLQMNSLRAEDTAVYYCARDSRRYVRPFDYWGQGTLVTVSS VL: not shown |
| 9050 | 0.16 | 1.84 | 0.000364 | 198000 | SRP2194-A04 (antibody, IgG1, V domains shown, His/FLAG-tagged IgG1, cell-free) VH: EVQLVESGGGLVQPGGSLRLSCAASGFNITGYYIHWVRQAPGKGLEWVGYISPLAGNTHHADSVKGRFTISADTSKNTAYLQMNSLRAEDTAVYYCARDSRRYVRPLDYWGQGTLVTVSS VL: not shown |
| 9050 | 0.49 | 3.75 | 0.00193 | 516000 | SRP2194-A06 (antibody, IgG1, V domains shown, His/FLAG-tagged IgG1, cell-free) VH: EVQLVESGGGLVQPGGSLRLSCAASGFNITDYYIHWVRQAPGKGLEWVGYISPLAGNTYHADSVKGRFPISADTSKNTAYLQMNSLRAEDTAVYYCARDSRRYVRPFDYWGQGTLVTVSS VL: not shown |
